Positions count from the first letter of the chain named. Numbers in names are those of the source.

Test [1] addresses T1, purified GST-TBC1D23 PH domain (545–684) (human, UniProt Q9NUY8-2 545-684).
T1 construct: also called purified TBC1D23 PH
The test can be described thus: pull-down; recombinant proteins: MBP or MBP-tagged LKB1 CRD-LFa held, purified GST-TBC1D23 PH as prey; same procedure as for GST-tagged proteins (50 mM Tris pH 8.0, 500 mM NaCl, 0.05% Triton X-100, 4 °C 1 h). The conditions noted are these: both partners purified.

Test [2] addresses T2, purified TBC1D23 PH domain (545–684) (human, UniProt Q9NUY8-2 545-684).
T2 construct: Used as prey for GST-tagged baits on glutathione beads and in ITC, so the GST was probably removed
The test can be described thus: ITC; LKB1-LFa motif peptides (1.0 mM) titrated into TBC1D23 PH domain (50 µM) at 25 °C; 100 mM Tris pH 8.0, 500 mM NaCl, 5% v/v glycerol. The conditions noted are these: both partners purified.

T2 sequence (Q9NUY8 560-699): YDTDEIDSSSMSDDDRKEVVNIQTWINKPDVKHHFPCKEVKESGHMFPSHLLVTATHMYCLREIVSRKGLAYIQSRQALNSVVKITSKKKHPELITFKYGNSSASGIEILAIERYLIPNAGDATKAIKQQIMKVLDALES
T1 sequence (Q9NUY8 560-699): as above

B1: MBP-LKB1 CRD-LFa WT (domain or fragment, human, UniProt Q15831 347-433, looked up)
chain: ADEDEDLFDIEDDIIYTQDFTVPGQVPEEEASHNGQRRGLPKAVCMNGTEAAQLSTKSRAEGRAPNPARKACSASSKIRRLSACKQQ
notes: LKB1 (STK11) CRD, residues 347–433; also called LKB1 WT; LKB1 CRD (347–433)
For B1, the binding result in test [1] was “binds”.

B2: MBP-LKB1 CRD-LFa F354A (domain or fragment, human, UniProt Q15831 347-433, looked up)
chain: B1 chain with F8A
notes: LKB1 (STK11) CRD, residues 347–433, with F354A; also called LKB1 F354A
B2: the binding result in test [1] is given as “binds”.

B3: MBP-LKB1 CRD-LFa F354L (domain or fragment, human, UniProt Q15831 347-433, looked up)
chain: B1 chain with F8L
notes: LKB1 (STK11) CRD, residues 347–433, with F354L (reported in Peutz–Jeghers patients, present in gnomAD); also called LKB1 F354L
For the molecule B3, the binding result in test [1] is “binds”.

B4: LKB1 LFa peptide WT (peptide)
peptide: GADEDEDLFDIEDDIIYTQD
notes: LKB1 (STK11) LFa motif peptide; also called LKB1-LFa motif peptide; LKB1-LFa WT
Turning to B4, in test [2], the Ka came out at 1.25e+06 M⁻¹, the Kd came to 800 nM and the “stoichiometry N” value came out at 1.

B5: LKB1 LFa peptide F354L (peptide)
peptide: GADEDEDLLDIEDDIIYTQD
notes: LKB1 (STK11) LFa motif peptide with F354L, a mutation reported in Peutz–Jeghers patients and present in gnomAD; also called LKB1 F354L; LKB1-LFa mutants
For B5, the “fold by which the affinity of LKB1 WT is higher” value in test [2] is roughly 3 fold.

B6: LKB1 LFa peptide F354A (peptide)
peptide: GADEDEDLADIEDDIIYTQD
notes: LKB1 (STK11) LFa motif peptide with F354A; also called LKB1 F354A; LKB1-LFa mutants
In the case of B6, the “fold by which the affinity of LKB1 WT is higher” value in test [2] is roughly 3 fold.

The Kd is the concentration at which binding is half-saturated. The stoichiometry N is a count of units in the complex or per binding partner.
